# B1: RelB (endogenous, BV-2 microglial cells) (natural protein, mouse (endogenous in BV-2), UniProt Q04863 1-558, looked up)
# chain: MPSRRAARESAPELGALGSSDLSSLSLTVSRTTDELEIIDEYIKENGFGLDGTQLSEMPRLVPRGPASLSSVTLGPAAPPPPATPSWSCTLGRLVSPGPCPRPYLVITEQPKQRGMRFRYECEGRSAGSILGESSTEASKTLPAIELRDCGGLREVEVTACLVWKDWPHRVHPHSLVGKDCTDGVCRVRLRPHVSPRHSFNNLGIQCVRKKEIEAAIERKIQLGIDPYNAGSLKNHQEVDMNVVRICFQASYRDQQGHLHRMDPILSEPVYDKKSTNTSELRICRINKESGPCTGGEELYLLCDKVQKEDISVVFSTASWEGRADFSQADVHRQIAIVFKTPPYEDLEISEPVTVNVFLQRLTDGVCSEPLPFTYLPRDHDSYGVDKKRKRGLPDVLGELSSSDPHGIESKRRKKKPVFLDHFLPGHSSGLFLPPSALQPADSDFFPASISLPGLEPPGGPDLLDDGFAYDPSAPTLFTMLDLLPPAPPLASAVVGSGGAGATVVESSGPEPLSLDSFAAPGPGDVGTASLVGSNMFPNQYREAAFGGGLLSPGPEAT
# notes: NF-kappa B family member RelB, endogenous in the murine microglial cell line BV-2; source: endogenous, BV-2 whole cell lysate
# Target: T1, RelA (p65) (endogenous, BV-2 microglial cells) (mouse (endogenous in BV-2), UniProt Q04207 1-549)
# T1 construct: NF-kappa B family member RelA (p65), endogenous in the murine microglial cell line BV-2; source: endogenous, BV-2 whole cell lysate
# Test: co-IP; whole cell lysates of BV-2 cells, untreated or treated with Tat (100nM) for 4h or 8h; immunoprecipitation with a RelA-specific antibody and Protein A/G+ agarose beads, 4°C, washed with ELB lysis buffer; immunoblot with RelB-specific antibody; densitometry normalised to precipitated RelA
# Settings: partners not purified
# T1 sequence (Q04207 whole entry): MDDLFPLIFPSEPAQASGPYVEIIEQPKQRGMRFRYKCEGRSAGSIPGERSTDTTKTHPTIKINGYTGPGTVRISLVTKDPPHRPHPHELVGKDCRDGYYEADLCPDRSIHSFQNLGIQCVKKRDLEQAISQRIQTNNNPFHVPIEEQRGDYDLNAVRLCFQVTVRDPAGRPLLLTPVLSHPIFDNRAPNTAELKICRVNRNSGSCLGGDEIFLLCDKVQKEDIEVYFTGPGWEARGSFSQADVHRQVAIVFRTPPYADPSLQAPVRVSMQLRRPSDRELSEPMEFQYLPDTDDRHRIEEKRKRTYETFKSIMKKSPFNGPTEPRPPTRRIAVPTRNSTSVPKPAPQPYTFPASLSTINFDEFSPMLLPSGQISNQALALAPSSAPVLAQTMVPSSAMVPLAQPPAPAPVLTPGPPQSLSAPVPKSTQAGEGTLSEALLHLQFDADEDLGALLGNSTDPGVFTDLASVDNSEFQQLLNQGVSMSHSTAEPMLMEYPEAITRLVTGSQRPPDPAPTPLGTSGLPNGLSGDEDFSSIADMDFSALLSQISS
binder,measurement,value
B1,fold increase of co-precipitated RelB (normalised to precipitated RelA) with Tat against untreated cells,4 fold

# Reference: publication PMC2912378 (PLoS ONE, 2010)
